From patent US9034341B2, “Control of RAGE fusion protein glycosylation and RAGE fusion protein compositions” (TransTech Pharma, LLC, priority 2009, dated 2015)

T1: S100b (Bos taurus, UniProt P02638)
T1 construct: purchased Calbiochem 559290
T1 sequence (P02638 1-92): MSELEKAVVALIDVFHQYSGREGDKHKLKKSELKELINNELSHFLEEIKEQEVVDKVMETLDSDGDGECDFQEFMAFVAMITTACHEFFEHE

B1: S1F2: sRAGE-Ig fraction from untreated cells, 2-glycan occupancy (protein)
chain: QNITARIGEPLVLKCKGAPKKPPQRLEWKLNTGRTEAWKVLSPQGGGPWDSVARVLPNGSLFLPAVGIQDEGIFRCQAMNRNGKETKSNYRVRVYQIPGKPEIVDSASELTAGVPNKVGTCVSEGSYPAGTLSWHLDGKPLVPNEKGVSVKEQTRRHPETGLFTLQSELMVTPAPGGDPRPTFSCSFSPGLPRHRALRTAPIQPRVWEPVPLEEVQLVVEPEGGAVAPPSVFLFPPKPKDTLMISRTPEVTCVVVDVSHEDPEVKFNWYVDGVEVHNAKTKPREEQYNSTYRVVSVLTVLHQDWLNGKEYKCKVSNKALPAPIEKTISKAKGQPREPQVYTLPPSRDELTKNQVSLTCLVKGFYPSDIAVEWESNGQPENNYKTTPPVLDSDGPFFLYSKLTVDKSRWQQGNVFSCSVMHEALHNHYTQKSLSLSPGK
B2: S2F2: sRAGE-Ig fraction from TMYCN treated cells, 2-glycan occupancy (protein)
chain: B1 chain
B3: S1F1: sRAGE-Ig fraction from untreated cells, 3-glycan occupancy (protein)
chain: B1 chain
B4: S2F3: sRAGE-Ig fraction from TMYCN treated cells, 0-glycan occupancy (aglycosylated variant) (protein)
chain: B1 chain
modifications: non-natural residues
B5: S2F1: sRAGE-Ig fraction from TMYCN treated cells, 3-glycan occupancy (protein)
chain: B1 chain

Key:
[1] = target: T1, S100b; test: S100b binding ELISA; conditions: for Relative binding compared to control: binding to S100b relative to S1 control (untreated sRAGE-Ig)
Description: Peak fraction collection for S100b binding assay: sRAGE-Ig fusion protein samples were concentrated to 4.0 mg/mL using a 10K Amicon Ultra filtration column (Millipore, Bedford, Mass.) and then separated under the reversed-phase conditions for glycan site occupancy as described above. Three fractions representing the site occupancy variants of sRAGE-Ig were collected as triply glycosylated (fraction one, F1), doubly glycosylated (fraction two, F2), and aglycosylated (fraction three, F3). The collected samples were concentrated and exchanged into a stabilizing buffer. Protein concentration of the fraction samples was determined by 280 nm absorbance with a DU 650 spectrophotometer (Beckman Coulter, Fullerton, Calif.) before subjecting the protein to the S100b ELISA binding assay.
(§1) S100b binding ELISA: An ELISA assay plate was coated with 100 μL/well of 20 μg/mL S100b protein (Cat. No. 559290, Calbiochem, Gibbstown, N.J.) in coating buffer (Tris buffered saline [TBS], pH8.0, with 5 mM CaCl2) overnight at 4° C. The plate was then washed three times with blocking buffer (TBS pH8.0, with 5 mM CaCl2, 0.05% Tween20, and 1% bovine serum albumin [BSA]), and blocked with the blocking buffer for 1-1.5 hr. sRAGE-Ig fusion samples were prepared in a separate dilution plate, the highest concentration was 10 μg/mL in blocking buffer, with 1:4 serial dilution in blocking buffer down to 2.4 ng/mL. After blocking, the assay plate was washed with the blocking buffer and 100 μL of the samples were transferred from the dilution plate to the assay plate. The assay plate was incubated at room temperature for 2.5 hr. The assay plate was then washed three times with the blocking buffer, with 1 min soaking time between the washes. The horseradish peroxidase conjugated goat anti-human IgG (Cat. No. A2290, Sigma, St. Louis, Mo.) was added to the plate with 100 μL/well at 1:2500 dilution in the blocking buffer. The plate was incubated for 1 hr at room temperature. The assay plate was then washed three times with the blocking buffer again, and 100 μL 3,3′,5,5′-tetramethylbenzidine (TMB; Cat. No. 34022, Pierce, Rockford, Ill.) was added to each well and the plate was incubated for 8 minutes at room temperature. 100 μL of 1M H2SO4 was then added to each well, the plate was shaken and read at 450 nm on a microplate reader.

[2] = system: human Aβ peptides (Aβ1-40, Aβ1-28); test: Aβ peptide binding ELISA; conditions: for Relative binding compared to control: binding to Abeta relative to S1 control
Description: as §1
Assay for Aβ peptide binding activities: Briefly, two human Aβ peptides were tested: Aβ1-40 (Catalogue# A-1153-2, Rpeptide), and Aβ1-28 (Catalogue#24232, AnaSpec). The plates were coated by 20 μg/mL peptide in 1% NH4OH overnight at 4° C. The plate was then washed with blocking buffer (TBS pH8.0, 0.05% Tween20, and 1% BSA) and blocked for 1 hr at room temperature. All the other steps were performed essentially as described previously herein for S100b binding assay, supra.

[3] = versus unfractionated untreated S1

Sequence of human Aβ peptides (Aβ1-40, Aβ1-28) (P05067 672-699 limits assumed): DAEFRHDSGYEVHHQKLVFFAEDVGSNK

Molecule | Relative binding compared to control [1] [%] | Relative binding compared to control [2] [%] | fold increase in binding to S100b compared to fully occupied 3-glycan version ([1]; versus S1F1) | fold increase in binding to S100b compared to S1 control [1, 3] | fold increase in binding to Abeta compared to fully occupied 3-glycan version ([2]; versus S2F1) | fold increase in binding to Abeta compared to S1 control [2, 3]
B1 | 173 | 170 |  |  |  | 
B2 | 180 | 238 |  |  |  | 
B3 | 46 | 102 |  |  |  | 
B4 |  |  | ten-fold | five-fold | six-fold | three-fold
B5 | 20 | 49 |  |  |  | 
